Assay results as given in patent publication US7008623 (GlaxoSmithKline, dated 2006).

T1: soluble CD23 (sCD23) (human, UniProt P06734 150-321, limits assumed)
T1 sequence (looked up): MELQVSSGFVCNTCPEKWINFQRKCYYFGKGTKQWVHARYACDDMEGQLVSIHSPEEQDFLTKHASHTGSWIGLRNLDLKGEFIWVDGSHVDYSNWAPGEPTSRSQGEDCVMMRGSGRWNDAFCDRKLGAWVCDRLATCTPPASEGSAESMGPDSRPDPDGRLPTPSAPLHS

T2: purified recombinant CD23 (human, UniProt P06734 150-321, limits assumed)
T2 construct: also called CD23 antigen; immobilised CD23
T2 sequence (looked up): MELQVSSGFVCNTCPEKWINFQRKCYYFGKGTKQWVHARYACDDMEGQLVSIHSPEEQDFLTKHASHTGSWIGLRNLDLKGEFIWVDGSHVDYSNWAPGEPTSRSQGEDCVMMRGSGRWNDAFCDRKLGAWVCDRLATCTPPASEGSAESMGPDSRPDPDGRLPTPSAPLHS


Assays:
soluble CD23 (sCD23) [1] = target: T1, soluble CD23 (sCD23); experiment: ELISA, plate coated with sCD23, OD against antibody concentration
Description: (§1) The chimaeric antibody bound sCD23 in an ELISA assay. For the ELISA assay to determine sCD23 binding, EIA/RIA plates (Costar) were coated with 100 µl/well of 2 µg/ml sCD23 in 35 mM NaHCO_3, 15 mM Na_2CO_3, pH 9.3 overnight at 4° C. Plates were washed three times with 150 mM NaCl, 50 mM Trizma base, 0.1% (v/v) Tween-20, pH 7.4 (TBS/Tween), blocked for 1–2 hours at 22° C. with 100 µl/well of 2% bovine serum albumin in TBS/Tween, and washed three times with TBS/Tween.
(§2) The concentration of chimeric and humanised anti-CD23 antibody required for half-maximal binding to sCD23 was assayed using the sCD23 ELISA already described. Absorbance at 405 nm was plotted versus a range of concentrations of antibody to generate a sigmoidal curve with a "goodness of fit" or correlation coefficient of 1. The absorbance was read using a Molecular Devices plate reader (Menlo Park, Calif., USA) and Softmax (Molecular Devices Corp) software to calculate best fit by a log-logit algorithm then display the curve, equation parameters and correlation coefficient. A discussion of curve fitting appears in "Data Analysis and Quality Control of Assays: A Practical Primer", by R P Channing Rogers in Practical Immuno Assay, editor Wilfrid R Butt; published by Marcel Dekker, Inc., New York 1984. […] The value for x in ng/ml was calculated for the following equation: […]

soluble CD23 (sCD23) [2] = target: T1, soluble CD23 (sCD23); experiment: ELISA, sCD23 coated on plate, antibody concentration for half-maximal binding (log-logit fit)
Description: as §1, §2

[3] = target: T2, purified recombinant CD23; experiment: Biacore SPR, recombinant CD23 immobilised on CM5, calculated from the rates; lower end of the range over 6 batches
Description: (§3) The association rate, dissociation rate and the dissociation rate constant for the binding of humanised anti-CD23 to the CD23 antigen was evaluated on the Biacore Biosensor. Briefly, purified recombinant CD23 was immobilised onto a CM5 sensor surface. Carboxyl groups on the dextran surface were activated by 1-ethyl-3(3-dimethylaminopropyl) carbidimide (EDCO/N-hydroxysuccimimide (NHS). Following activation, recombinant CD23 was passed over the surface to initiate immobilisation. Ethanolamine was then added to quench residual active groups. Humanised anti-CD23 diluted in HBS buffer was passed over the sensor surface. Binding of anti-CD23 to immobilised CD23 was monitored in real time for estimation of the association rate (M^-1 seq^-1). Dissociation of the CD23 and the anti-CD23 complex in buffer was also monitored for estimation of the dissociation rate (sec^-1). The dissociation constant (nM) was calculated from the dissociation and association rate. […] The affinity constant was determined to be approximately 9 ×10^10 Ka mol^-1.

[4] = target: T2, purified recombinant CD23; experiment: Biacore SPR, recombinant CD23 immobilised on CM5, antibody in solution; lower end of the range over 6 batches
Description: as §3

[5] = target: T2, purified recombinant CD23; experiment: Biacore SPR, recombinant CD23 immobilised on CM5; affinity (association) constant
Description: as §3

[6] = target: T2, purified recombinant CD23; experiment: Biacore SPR, recombinant CD23 immobilised on CM5, antibody in solution; upper end of the range over 6 batches
Description: as §3

EC50 (read off the curve) (soluble CD23 (sCD23) [1])	EC50 (soluble CD23 (sCD23) [2])	Kd [3]	koff [4]	kon [4]	Ka [5]	koff [6]	Binder
~0.06 µg/mL	0.0163 µg/mL						chimaeric anti-CD23 antibody (murine C11 variable regions, human gamma 1 and human kappa constant regions) (antibody, human IgG1, V domains shown, The VH is fused to the human IgG1 (gamma 1) constant region of Reichmann et al 1988 and the VL to the human kappa constant region of Reichmann et al 1988; It was transiently expressed in COS cells and tested as supernatant; The variable regions were amplified with signal-peptide primers, so the entries may include a leader, and no cleavage site is stated; also called chimeric CD23; chimaeric CD23 …) VH: EVKLEESGGGLVQPGGSMKLSCVASGFTFSGYWMSWVRQSPEKGLEWVAEIRLKSDNYATHYAESVKGKFTISRDDSKSRLYLQMNSLRAEDSGVYYCTDFIDWGQGTL VL: DIVITQDELSNPVTSGESVSISCRSSKSLLYKDGKTYLNWFLQRPGQSPQLLMYLMSTRASGVSDRFSGSGSGTDFTLEISRVKAEDVGVYYCQQLVEYPFTFGSGTKLEIKR
~0.03 µg/mL	0.015 µg/mL	0.008 to 0.012 nM	1e-05 s⁻¹	1.5e+06 to 1.85e+06 M⁻¹ s⁻¹	~9e+10 M⁻¹	2e-05 s⁻¹	humanised anti-CD23 antibody (IgG1 with mutations 248 Leu to Ala and 250 Gly to Ala, human kappa) (antibody, V domains shown, The light chain constant region is human kappa; also called humanised CD23 IgG1m) VH: EVQLVESGGGLVKPGGSLRLSCAASGFTFSGYWMSWVRQAPGKGLEWVAEIRLKSDNYATHYAESVKGKFTISRDDSKSRLYLQMNSLKTEDTAVYYCTDFIDWGQGTLVTVSS VL: DIVMTQSPLSLPVTPGEPASISCRSSKSLLYKDGKTYLNWYLQKPGQSPQLLIYLMSTRASGVPDRFSGSGSGTDFTLKISRVEAEDVGVYYCQQLVEYPFTFGQGTKVEIKR
